# Starred links: 1 amine or outer side, 2 acyl side, 3 side chain; linkers in the order of their positions; H or OH if unused. Non-standard residues stand in square brackets, D forms with d. Groups on a side chain read outwards from the residue. Primed or numbered codes have the meaning given here. No end group written: not given here. *: point of attachment. γGlu = O=C(O)[C@H](CCC(=O)[*:2])N[*:1]; Stearoyl = CCCCCCCCCCCCCCCCCC(=O)*; αMeF = C[C@](N)(Cc1ccccc1)C(=O)O; αMeK = C[C@](N)(CCCCN)C(=O)O; αMeS = C[C@](N)(CO)C(=O)O; PEG2′ = not defined here; Aib = CC(C)(N)C(=O)O
# T1: GLP-1R (INS1e assay) (UniProt P32301 22-463, limits assumed)
# T1 sequence (looked up): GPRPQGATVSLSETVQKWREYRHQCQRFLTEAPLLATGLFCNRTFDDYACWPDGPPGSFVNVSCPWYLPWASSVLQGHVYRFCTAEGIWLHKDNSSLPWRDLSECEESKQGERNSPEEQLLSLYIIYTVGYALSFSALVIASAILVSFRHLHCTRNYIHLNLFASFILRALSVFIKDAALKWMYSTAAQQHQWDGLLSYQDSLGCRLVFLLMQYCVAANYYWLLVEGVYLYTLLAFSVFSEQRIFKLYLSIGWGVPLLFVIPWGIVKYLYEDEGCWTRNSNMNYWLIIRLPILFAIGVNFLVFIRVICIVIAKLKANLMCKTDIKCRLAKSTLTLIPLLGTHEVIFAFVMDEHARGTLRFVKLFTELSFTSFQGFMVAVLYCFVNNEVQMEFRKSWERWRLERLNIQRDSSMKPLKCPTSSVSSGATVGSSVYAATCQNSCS
# Molecular target: T1, GLP-1R (INS1e assay)
# Assay: cell-based or functional assay
INS1e assay EC50 GLP-1 R n1 [nM],INS1e assay EC50 GLP-1 R n2 [nM],INS1e assay EC50 Mean pM GLP-1R [pM],Binder
0.0051,0.00787,6,H[Aib]EGS[αMeF]TSDV[αMeS]S[αMeF]LEGEAA[αMeK]E[αMeF]IA[αMeF]VV[αMeK]GG-NH2 (N-terminus assumed; SMILES CC[C@H](C)[C@H](NC(=O)[C@](C)(Cc1ccccc1)NC(=O)[C@H](CCC(=O)O)NC(=O)[C@](C)(CCCCN)NC(=O)[C@H](C)NC(=O)[C@H](C)NC(=O)[C@H](CCC(=O)O)NC(=O)CNC(=O)[C@H](CCC(=O)O)NC(=O)[C@H](CC(C)C)NC(=O)[C@](C)(Cc1ccccc1)NC(=O)[C@H](CO)NC(=O)[C@](C)(CO)NC(=O)[C@@H](NC(=O)[C@H](CC(=O)O)NC(=O)[C@H](CO)NC(=O)[C@@H](NC(=O)[C@](C)(Cc1ccccc1)NC(=O)[C@H](CO)NC(=O)CNC(=O)[C@H](CCC(=O)O)NC(=O)C(C)(C)NC(=O)[C@@H](N)Cc1c[nH]cn1)[C@@H](C)O)C(C)C)C(=O)N[C@@H](C)C(=O)N[C@@](C)(Cc1ccccc1)C(=O)N[C@H](C(=O)N[C@H](C(=O)N[C@@](C)(CCCCN)C(=O)NCC(=O)NCC(N)=O)C(C)C)C(C)C) [SEQ ID NO 17]
3.59,3.78,3680,H[Aib]EGS[αMeF]TSDV[αMeS]S[αMeF]LEGEAAK([PEG2′-PEG2′-γGlu-Stearoyl])E[αMeF]IA[αMeF]VV[αMeK]GG-NH2 [SEQ ID NO 3]
0.104,0.139,122,HXEGTFTSDVSSYLEGQAAKEFIAWLVKGRK (Aib2; K(ε-(PEG)2-(PEG)2-γE-Stearate) after R30; C-terminal amide) [SEQ ID NO 6]
0.207,0.167,187,H[Aib]EGS[αMeF]TSDV[αMeS]S[αMeF]LEGEAAEE[αMeF]IA[αMeF]VV[αMeK]GG-NH2 (N-terminus assumed; SMILES CC[C@H](C)[C@H](NC(=O)[C@](C)(Cc1ccccc1)NC(=O)[C@H](CCC(=O)O)NC(=O)[C@H](CCC(=O)O)NC(=O)[C@H](C)NC(=O)[C@H](C)NC(=O)[C@H](CCC(=O)O)NC(=O)CNC(=O)[C@H](CCC(=O)O)NC(=O)[C@H](CC(C)C)NC(=O)[C@](C)(Cc1ccccc1)NC(=O)[C@H](CO)NC(=O)[C@](C)(CO)NC(=O)[C@@H](NC(=O)[C@H](CC(=O)O)NC(=O)[C@H](CO)NC(=O)[C@@H](NC(=O)[C@](C)(Cc1ccccc1)NC(=O)[C@H](CO)NC(=O)CNC(=O)[C@H](CCC(=O)O)NC(=O)C(C)(C)NC(=O)[C@@H](N)Cc1c[nH]cn1)[C@@H](C)O)C(C)C)C(=O)N[C@@H](C)C(=O)N[C@@](C)(Cc1ccccc1)C(=O)N[C@H](C(=O)N[C@H](C(=O)N[C@@](C)(CCCCN)C(=O)NCC(=O)NCC(N)=O)C(C)C)C(C)C) [SEQ ID NO 42]
3.59,3.78,3680,H[Aib]EGS[αMeF]TSDV[αMeS]S[αMeF]LEGEAAK([PEG2′-PEG2′-γGlu-Stearoyl])E[αMeF]IA[αMeF]VV[αMeK]GG-NH2 [SEQ ID NO 33]
